Data published in patent US20250197455A1.

Legend:
BG505 N28 502 660-665 = experiment: supernatant ELISA; row BG505.RnS7Mut-N28-502-660-665
[1] = molecular target: ConC glycan-base trimer, VRC 7678 (6931_DS-N28-JCBv3-N660-N665.667) (ConC based) (HIV-1 (consensus clade C, ConC)); experiment: supernatant ELISA; row scFc-3C-6931-DS-28_JCB04V3-660-665
BG505 N28 JCBv3 660 = experiment: supernatant ELISA; row BG505.RnS7Mut-N28-JCBv3-660
[2] = molecular target: BG505 glycan-base trimer, VRC 7873 (4571_RnS7Mutv1-2G-3Mut-N28-JCBv3-N660-N665.667_613S_620S) (BG505-based) (HIV-1 (BG505, Clade A)); experiment: supernatant ELISA; row BG505.RnS7Mut-N28-JCBv3-660-665
[3] = molecular target: protein-base BG505 trimer, BG505-RnS7Mutv1-DS-SOSIP-2G-3Mut (HIV-1 (BG505, Clade A)); experiment: supernatant ELISA; row BG505-RnS(7MutV1)-2G-3mut-DS_SOSIP-scFc
BG505 N28 JCBv2 660-665 = experiment: supernatant ELISA; row BG505.RnS7Mut-N28-JCBv2-660-665
6931-DS-N28-JCBv3-660 = experiment: supernatant ELISA; row scFc-3C-6931-DS-28_JCB04V3-660
6931-DS-N28-502-660-665 = experiment: supernatant ELISA; row scFc-3C-6931-DS-28-502-660-665

Substance | ELISA OD450 (raw) (BG505 N28 502 660-665) [OD450] | ELISA OD450 (raw) [1] [OD450] | ELISA OD450 (raw) (BG505 N28 JCBv3 660) [OD450] | ELISA OD450 (raw) [2] [OD450] | ELISA OD450 (raw) [3] [OD450] | ELISA OD450 (raw) (BG505 N28 JCBv2 660-665) [OD450] | ELISA OD450 (raw) (6931-DS-N28-JCBv3-660) [OD450] | ELISA OD450 (raw) (6931-DS-N28-502-660-665) [OD450]
PGT122 (antibody) | 0.864 | 1.48 | 0.906 | 0.874 | 1.05 | 1 |  | 
VRC34.01 (antibody) | 0.437 | 1.05 | 0.648 | 0.682 | 0.783 | 0.729 | 0.89 | 0.718
VRC26.25 (antibody) | 0.555 | 0.798 | 0.652 | 0.564 | 0.71 | 0.544 | 0.979 | 0.874
N6 (antibody) | 0.666 |  | 0.771 | 0.795 | 0.811 | 0.816 | 0.918 | 0.876
PGT145 (antibody) | 0.531 |  | 0.427 | 0.219 | 0.683 |  |  | 0.938
F105 (antibody) | 0.106 |  | 0.196 | 0.157 | 0.134 | 0.141 | 0.432 | 0.337
3BNC117 (antibody) | 0.841 |  | 1.01 | 0.981 | 1.04 | 0.952 | 1.13 | 1.03
35O22 (antibody) | 0.785 | 0.954 | 0.728 | 0.632 | 1.01 | 0.628 |  | 0.916
PGDM1400 (antibody) | 0.982 | 0.949 | 1.09 | 1.07 | 0.985 | 1.03 | 0.861 | 0.681
